Each block holds one molecule with its values, some of them ahead of it.
Key:
[1] = biological target: HYDIN (mouse (endogenous in mouse sperm)) (UniProt Q80W93); test: cryo-EM structure
cryo-EM structure = biological target: the molecule itself; test: cryo-EM structure

- stoichiometry N [1]: 3
Molecule: HYDIN, Q80W93 1-5154

B1: SPAG16 (natural protein)
chain: MAAPSGVPPLRVLEELGIGLSPTGEVTEAVTSEGAYYLEQVTITETSEDECEYEEIPDDNFSIPEGEEDLEKAIHIIGEQARDIHILEQQTILPARNVMQEAIEDFLCNFLIKMGMTRTLDCFQAEWYELIQKKGSDFKGLGNVPDVYSQVMLLETENKNLKKELKHFKQAAEKAKEDLLRTQKERDFHRMHHKRIVQEKNKLIADLKGLKLHYASYEPTIRVLHEKHHALLKEKMLTSLERDRAVGKISGLQATLKNIDMGHIQVPVIKGSYESASITRESGDRAGHSCEKENSSEGPTQKSLREAREEVGYKSKLKNEKKDSEFPVDMQPDPNVTSCTENVSAAKFDYKLNNIFRLHELPVSCIVMHPCRDYLISCSEDRLWKMVGLPQGNVLLTGSGHTDWLSGCCFHPSGSKLATSSGDSTIKLWDLNKGECTLTLEGHNHAVWSCTWHSCGDFVASASLDMTSKIWDVNSERCRYTLYGHTDSVNSIEFFPFSNILLTASADKTLSVWDARTGKCEQSLYGHMHSVNDATFTPRGHIIASCDARGVTKLWDFRKLIPIVSIDVGPSSGNEVNFDQSGRVLAQASANGIIHLLDLKSGQIHKLVGHESEVHSVVFSHLGENLYSGGSDGTIRLWI
- stoichiometry N (cryo-EM structure): 2

B2: CFAP70 (natural protein)
chain: MDQTSSTTKIVHITVTNGYDLKGFKGDTPVTFVRAEFNQTVLGDSSKVTVSPEGTAKYNFTSNIDLSPDGGGALDDLAHKPLFLTVTEVLPKEKKQKDEKTLILGQAVVDLLPLLEGEESFETTVPLHPVPGSPLETPLPGSKQCSLDVKVFVAEPLLTPAQVSASNLLKVTLEAAYSVPESFIPVGPQQNYMVGLQVPSVGEKDYTMIFKNGNLKLGGEKEPVPRPKKWPIANILAPGASNIPDEFIVGGPYEEEEGELNHPEDREFRNQAECTKKRIVWDLESRCFLHPFAVASFQKRIADCRLWPVEITRVPLVVMPKAKPGKLEKIDDENQLSFHGVAYINMVPLLYPGVKKIRGAFHVYPYLDGTVFEKTKCLFSLFRDTGHHLVQNNKAGGLNSPLSKPLSKNLKEEKPGKDKDTEGRPRLGELQAPSIKSQSSDTPLESEAPLSHNLEGQQYIEAGTYIVLEIQLEKALVPKRMPEELARRVKEMIPPRPPLTRRTGGAQKAVSDYHTQIKSISRAILNEYYRMFGKQGPKLESDIDNETMEERKCQLNYELNCSGKYFAFKEQLKHAVVKIVREKYLKTTAFESQEELQTFISELYVFLVDQMHVALNQAVPDDVPSSTSTIQTSSEQLRLFAFEAEVNEKFEIAAMYYEERLVREPQNLENWLDYGAFCLLTEDNIKAQECFRKALSLNESHVDSLLLCGVLAILLENYEQAEIFFEDATCLEPTNVIAWTLLGLFYEIQNNDIRMEMAFHEAFKQLQARTLQTKLKSTVTIENMEEGVKVEPSFGPWGVVQESTTAIKTEGLSGMRPQSSHQLSPHTNMELHPQPQGPNTALSSLDEFLEESPKAQSESQEPMATGQPLEPSLVQRSSNALLKELTSKKDISKCQDSSAFSPPTQHVIAQPPVTIFMETIRFLMKVNAVQFVHRVLAHELLCPQGGPSCEYYLVLAQTHLLKKDFAKTEEYLQQAAQMDYLNPNVWGVKGHLYFLSGNHAEAKECYERTISFVVDASEMHFIFLRLGHIYLEEKEYENAKRTYMHACKRSPSCLTWLGLGIACYRLEELTEAEDALSEANALNNCNAEVWAYLALVCLKVGRQLEAEQAYKYTIKLKLKDQALLEEIHTVQEMVGFGNPSF
- stoichiometry N (cryo-EM structure): 2

B3: germ cell-less 1 (GMCL1) (natural protein)
chain: MGALSSRVLRPAGRTEQPEPTPGAGGAARRSDAGEDAGHSFCYCPGGRKRKRSSGTFCYCHPDSETDDDEDEGDEQQRLLNTPRRKKLKSTSKYIYQTLFLNGENSDIKICALGEEWSLHKIYLCQSGYFSSMFSGSWKESSMNIIELEIPDQNIDIEALQVAFGSLYRDDVLIKPSRVVAILAAACMLQLDGLIQQCGETMKETISVRTVCGYYTSAGTYGLDSVKKKCLEWLLNNLMTHQSVELFKELSINVMKQLIGSSNLFVMQVEMDVYTALKKWMFLQLVPSWNGSLKQLLTETDVWFSKWKKDFEGTTFLETEQGKPFAPVFRHLRLQYIISDLASARIIEQDSLVPSEWLAAVYKQQWLAMLRAEQDSEVGPQEINKEELEGNSMRCGRKLAKDGEYCWRWTGFNFGFDLLVTYTNRYIIFKRNTLNQPCSGSVSLQPRRSIAFRLRLASFDSSGKLICSRATGYQILTLEKDQEQVVMNLDSRLLIFPLYICCNFLYISPEKRTESNRHPENPGH
- stoichiometry N (cryo-EM structure): 2

B4: GOT1L1 (putative aspartate aminotransferase) (natural protein)
chain: MTSLSVFRDVPTAQKLEGSLLKIYRQDGYPSKLFLAYKVCMTEEGHPWVSLVVHKTRLQIAEDPSLDYEYLPLVGLKSFIQSSLELLFGKHSEAIAEKRVGGVHIVGESGAFQLGAQFLKTWRKNVKIVCIVSCQKEQCGLIFQDMGFIVYEYSIWNASDLCSDPSMFVEVLQHIPVGSILVIGNITDCKFTQNQWTKLMSIIKSKQIFPFFDIPCQGLSTGDLEEDTKILQYFVSLGLEFFCSQSLSKNFGIYDEGVGILVVAALSNQHLLCVLSQLMDYVQALWGNPPATGARIITSILCNPALFGEWKQSLKGVVENMMLIKEKVKEKLRLLGTPGSWDHITRQSGTHGYLGLTYQQVEFLVKKKHIYLPKTSRINFTCINARNIDYITQSIHEAVMLTEG
- stoichiometry N (cryo-EM structure): 2

Source: paper doi:10.1101/2024.08.06.606614 (bioRxiv, 2024)
